Target: tau Venus BiFC constructs (UniProt P10636)
Assay: split reporter (BiFC, NanoBiT); Venus BiFC; co-culture of HEK293 cells transfected with the VN construct and cells transfected with the VC construct (50,000 cells each per ml, 48 h); flow cytometry, cells above 120 fluorescence units are positive; also run after treatment with anle138b 1 µM, EGCG 0.1 µM, fulvic acid 37 µM or dynasore 10 µM

- percent of BiFC positive cells (co-culture): 3.9%
Substance: tau Venus BiFC constructs (from UniProt P10636 1-758) (natural protein)

Reference: paper PMC7393090
